Drawing on PMC6582535, this text covers percent decrease of A-type K+ current (IA) in small-sized mouse DRG neurons for 1 substance.

The assay concerns the target Cholecystokinin type B receptor (mouse (endogenous in DRG)) (UniProt P56481).
Sequence of UniProt P56481 (P56481 whole entry): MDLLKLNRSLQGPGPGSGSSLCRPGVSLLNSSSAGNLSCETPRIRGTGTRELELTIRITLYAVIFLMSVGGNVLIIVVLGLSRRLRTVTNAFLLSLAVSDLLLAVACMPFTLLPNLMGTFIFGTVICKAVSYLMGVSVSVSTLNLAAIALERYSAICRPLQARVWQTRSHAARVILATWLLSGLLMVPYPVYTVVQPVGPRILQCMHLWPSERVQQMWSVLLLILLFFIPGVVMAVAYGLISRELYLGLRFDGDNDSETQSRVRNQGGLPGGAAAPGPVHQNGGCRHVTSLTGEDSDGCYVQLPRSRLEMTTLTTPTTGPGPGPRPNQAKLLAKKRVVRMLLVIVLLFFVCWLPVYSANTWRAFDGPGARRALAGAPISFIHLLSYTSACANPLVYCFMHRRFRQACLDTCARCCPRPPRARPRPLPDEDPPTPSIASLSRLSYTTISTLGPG

Regarding CCK-4 (peptide), the percent decrease of A-type K+ current (IA) in small-sized mouse DRG neurons at 300 nM CCK-4 came to 32.2%.
